Patent US9266939B2, “Compositions comprising natriuretic peptides and methods of use thereof” (Alexion Pharmaceuticals, Inc., priority 2010, dated 2016)

Experiments:
NPR-B = target: T1, NPR-B (Homo sapiens, UniProt P20594); experiment: Membrane guanylyl cyclase (cGMP) assay, NPR-B; assay type: biochemical; conditions: second NPR-B membrane assay (FIG. 21B)
T1 sequence (P20594 23-1047): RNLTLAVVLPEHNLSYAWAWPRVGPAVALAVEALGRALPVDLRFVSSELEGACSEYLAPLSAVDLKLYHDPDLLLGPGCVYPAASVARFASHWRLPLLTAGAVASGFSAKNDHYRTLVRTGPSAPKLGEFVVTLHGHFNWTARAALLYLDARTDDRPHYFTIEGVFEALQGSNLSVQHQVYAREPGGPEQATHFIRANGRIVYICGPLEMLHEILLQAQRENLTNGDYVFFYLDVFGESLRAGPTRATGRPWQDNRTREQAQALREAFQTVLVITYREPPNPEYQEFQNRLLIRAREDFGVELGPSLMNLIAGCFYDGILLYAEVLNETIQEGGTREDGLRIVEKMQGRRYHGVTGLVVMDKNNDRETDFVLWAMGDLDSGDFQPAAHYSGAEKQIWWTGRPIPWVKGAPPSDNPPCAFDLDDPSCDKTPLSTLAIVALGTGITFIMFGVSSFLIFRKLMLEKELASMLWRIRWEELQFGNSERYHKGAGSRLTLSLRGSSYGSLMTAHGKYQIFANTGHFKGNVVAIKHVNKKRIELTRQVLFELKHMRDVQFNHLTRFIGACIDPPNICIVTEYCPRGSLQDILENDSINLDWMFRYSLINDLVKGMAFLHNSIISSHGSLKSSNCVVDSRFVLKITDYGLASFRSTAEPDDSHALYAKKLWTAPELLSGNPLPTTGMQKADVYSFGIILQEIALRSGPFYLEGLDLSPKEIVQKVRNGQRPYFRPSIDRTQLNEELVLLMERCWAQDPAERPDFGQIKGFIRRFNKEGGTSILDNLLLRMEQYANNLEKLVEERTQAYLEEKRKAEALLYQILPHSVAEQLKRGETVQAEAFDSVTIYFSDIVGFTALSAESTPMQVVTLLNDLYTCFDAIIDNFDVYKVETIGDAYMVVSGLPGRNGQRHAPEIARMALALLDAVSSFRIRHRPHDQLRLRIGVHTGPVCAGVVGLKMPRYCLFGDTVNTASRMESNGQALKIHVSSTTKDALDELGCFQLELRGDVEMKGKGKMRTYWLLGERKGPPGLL

[1] = In vivo pharmacokinetic study of NC2st administered IV or SC in C57BL/6 mice; conditions: male mice; for AUClast: 20 mg/kg single dose, serum
Procedure: NC2st was formulated at a concentration of 5.79 mg/mL in 25 mM sodium phosphate pH 7.4, 150 mM NaCl. The animals received NC2st as a single IV or SC dose (20 mg/kg) as described in Table 3 below. Injections were scheduled between 7:00 and 10:15 AM. Each mouse was injected with test article subcutaneously into the scapular region or immobilized in a rodent restrainer and injected with the test article as an intravenous bolus via the caudal vein. […] The animals received only one dose before scheduled blood collection and sacrifice. Individual body weights were assessed before scheduled test article injection and the volume of test article administered was based on body weight determination. Blood samples (0.1 to 0.12 mL) were collected via a jugular vein under isoflurane anesthesia at different time points. At the last time point, blood samples were collected by cardiac puncture under isoflurane anesthesia. Blood samples were collected into Microvette 200Z/gel tube (Sarstedt, serum/gel clotting activator, #20.1291), incubated at room temperature for 30 to 60 minutes, and centrifuged at 10,000×g for five minutes at 2-8° C. Serum was then transferred into a fresh 0.5 mL tube (Sarstedt, #72.699), snap-frozen in liquid nitrogen, and stored at -80° C. until analysis. […] Formulated NC2st protein spiked in serum served as a standard. Pharmacokinetic profiles were derived from the concentration measured by EIA. A non-compartmental analysis (NCA) was used to calculate the pharmacokinetic parameters of testing compound. […] NCA Model 200 was selected for extravascular input or Model 201 for IV-Bolus input using sparse sampling analysis module for both models. The following non-compartmental PK parameters were calculated: • Area under the curve from time zero to the last detectable concentration (AUClast), calculated using the linear trapezoidal (linear interpolation); • Area under the curve from time zero to infinity (AUC∞) calculated [NT]λz (where λz=slope of the terminal phase of the serum concentration vs time curve); • Maximum observed serum concentration (Cmax), time of maximum serum concentration (Tmax); • Terminal elimination half-life (T1/2, calculated as 0.693/λz); • Systemic clearance (CL) was calculated as Dose/AUC∞ and • Total volume of distribution (Vss) was calculated using CL×MRT, where MRT is the mean residence time. Absolute bioavailability (F %) between routes was calculated using the following formula: [AUC∞ (sc)/Dose(sc)]/[AUC∞ (iv)/Dose(iv)]×100. Nominal times were used in the calculations and times are set relative to start of dosing. Nominal doses were used for the calculation of CL.

[2] = Active NC2st concentration in serum of treated Fgfr3^369/+ mice (cGMP assay); assay type: in vivo; conditions: 13-18 hours after the last dose
Procedure: At necropsy (Day 64), blood samples were collected by cardiac puncture under isoflurane anesthesia 13-18 hours after the last dose. Blood samples were collected into Microvette 500Z/gel tube (Sarstedt, serum/gel clotting activator, #20.1344), incubated at room temperature for 30 to 60 minutes and centrifuged at 10,000×g for five minutes at 2-8° C. 100 μl of serum was then transferred into 0.5 mL tubes (Sarstedt, #72.699), and the remainder was transferred in a second tube. The two tubes were frozen in liquid nitrogen and stored at −80° C. until analysis.

In the case of “NC2st: Fc-CNP fusion: Strep-tag II, TEV site, human IgG-1 Fc, 16-amino acid glycine-rich linker, CNP22; SEQ ID NO: 502”, the “efficacy relative to CNP” value (NPR-B) is reported as 61%, the “potency relative to CNP (times less than that of CNP)” value (NPR-B) is reported as 19 times and the “AUC∞” value ([1]; IV, 20 mg/kg) is reported as 28,563 hr · nmol/L. The CL ([1]; IV, 20 mg/kg) was 0.187 mL/min/kg, the Cmax ([1]; IV, 20 mg/kg) was 2100 nM and the Half-life ([1]; IV, 20 mg/kg) was 10.6 h. For the same substance, the Tmax ([1]; IV, 20 mg/kg) was 1.00 h, the Vss ([1]; IV, 20 mg/kg) was 0.173 L/kg and the AUClast ([1]; IV) was 27,587 hr · nmol/L. For the same substance, the “increase of SC half-life over intravenous CNP22” value ([1]; SC) was “approximately 340 fold”, the Bioavailability ([1]; SC vs IV, 20 mg/kg) was 68.5% and the “AUC∞” value ([1]; SC, 20 mg/kg) was 19,592 hr · nmol/L. It also gave a CL_F ([1]; SC, 20 mg/kg) of 0.272 mL/min/kg, a Cmax ([1]; SC, 20 mg/kg) of 798 nM and a Half-life ([1]; SC, 20 mg/kg) of 14.3 h. For the same substance, the Tmax ([1]; SC, 20 mg/kg) was 6.00 h, the Vss_F ([1]; SC, 20 mg/kg) was 0.353 L/kg and the AUClast ([1]; SC) was 17,735 hr · nmol/L. The “mean NC2st blood serum level (active concentration)” value ([2]; Tx10 group) was “above the projected threshold for 50% reversal of the ACH phenotype” and the “mean NC2st blood serum level (active concentration)” value ([2]; Tx100 group) was “nearly three-fold above the projected threshold for 100% reversal”.
